B1: Protein TEM1 (Saccharomyces cerevisiae), P38987 (parent)
chain: MATPSTGANNSIPAVRNQVEVQVGLVGDAQVGKTSLMVKYVQNIYDKEYTQTLGVNFLKRKVSIRSTDIIFSIMDLGGQREFINMLPIATVGSSVIIFLFDLTRPETLSSIKEWYRQAYGLNDSAIPILVGTKYDLLIDLDPEYQEQISRTSMKYAQVMNAPLIFCSTAKSINIQKIFKIALAKIFNLTLTIPEINEIGDPLLIYKHLGGQQHRHHNKSQDRKSHNIRKPSSSPSSKAPSPGVNT
partner: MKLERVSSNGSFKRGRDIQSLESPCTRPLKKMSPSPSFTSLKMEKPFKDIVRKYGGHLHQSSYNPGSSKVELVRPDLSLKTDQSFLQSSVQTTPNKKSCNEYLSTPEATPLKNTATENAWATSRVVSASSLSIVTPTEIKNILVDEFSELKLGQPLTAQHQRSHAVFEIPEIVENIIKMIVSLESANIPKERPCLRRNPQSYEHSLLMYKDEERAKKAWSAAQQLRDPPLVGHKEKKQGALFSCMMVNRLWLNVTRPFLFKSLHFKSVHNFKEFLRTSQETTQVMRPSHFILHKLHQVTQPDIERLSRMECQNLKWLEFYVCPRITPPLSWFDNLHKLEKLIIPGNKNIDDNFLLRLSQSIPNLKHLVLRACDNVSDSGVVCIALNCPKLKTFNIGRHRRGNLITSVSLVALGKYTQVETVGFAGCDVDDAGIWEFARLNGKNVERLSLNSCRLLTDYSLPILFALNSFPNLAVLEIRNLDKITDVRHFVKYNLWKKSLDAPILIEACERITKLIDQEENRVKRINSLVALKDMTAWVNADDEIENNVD
B2: Protein TEM1 (Saccharomyces cerevisiae), P38987 (parent)
chain: B1 chain
partner: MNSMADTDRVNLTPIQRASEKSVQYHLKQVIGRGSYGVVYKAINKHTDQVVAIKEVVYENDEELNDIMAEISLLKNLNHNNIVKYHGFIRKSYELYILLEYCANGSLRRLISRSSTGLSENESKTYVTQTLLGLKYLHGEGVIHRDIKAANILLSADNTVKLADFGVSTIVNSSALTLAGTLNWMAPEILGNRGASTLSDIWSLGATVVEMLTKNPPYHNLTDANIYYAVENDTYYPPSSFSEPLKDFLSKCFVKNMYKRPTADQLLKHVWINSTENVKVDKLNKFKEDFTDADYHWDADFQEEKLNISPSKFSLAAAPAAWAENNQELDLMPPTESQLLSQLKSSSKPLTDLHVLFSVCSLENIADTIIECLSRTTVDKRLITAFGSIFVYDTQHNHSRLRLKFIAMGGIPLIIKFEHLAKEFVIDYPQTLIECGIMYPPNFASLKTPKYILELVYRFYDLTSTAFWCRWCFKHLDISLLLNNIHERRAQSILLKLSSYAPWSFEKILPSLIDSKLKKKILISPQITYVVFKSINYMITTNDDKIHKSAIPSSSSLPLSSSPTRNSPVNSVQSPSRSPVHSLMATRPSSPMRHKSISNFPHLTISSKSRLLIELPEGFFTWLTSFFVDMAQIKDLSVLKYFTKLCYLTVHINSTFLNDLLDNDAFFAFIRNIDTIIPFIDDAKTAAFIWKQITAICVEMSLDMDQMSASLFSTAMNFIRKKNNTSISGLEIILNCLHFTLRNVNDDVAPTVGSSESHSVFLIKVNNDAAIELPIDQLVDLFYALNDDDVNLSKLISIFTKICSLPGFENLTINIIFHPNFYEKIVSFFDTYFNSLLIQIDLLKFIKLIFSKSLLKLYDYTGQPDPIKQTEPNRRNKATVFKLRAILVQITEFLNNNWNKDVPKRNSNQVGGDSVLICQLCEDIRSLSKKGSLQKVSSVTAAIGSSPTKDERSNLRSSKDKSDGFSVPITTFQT

Variants of: B1
Settings: with amn1_yeast AMN1, P38285

Variant | effect of a mutation on the interaction
MATPSTGANNSIPAVRNQVEVQVGLVGDAQVGKASLMVKYVQNIYDKEYTQTLGVNFLKRKVSIRSTDIIFSIMDLGGQREFINMLPIATVGSSVIIFLFDLTRPETLSSIKEWYRQAYGLNDSAIPILVGTKYDLLIDLDPEYQEQISRTSMKYAQVMNAPLIFCSTAKSINIQKIFKIALAKIFNLTLTIPEINEIGDPLLIYKHLGGQQHRHHNKSQDRKSHNIRKPSSSPSSKAPSPGVNT [T34A] | decreasing interaction
MATPSTGANNSIPAVRNQVEVQVGLVGDAQVGKTSLMVKYVQNIYDKEYTQTLGVNFLKRKVSIRSTDIIFSIMDLGGQREFINMLPIATVGSSVIIFLFDLTRPETLSSIKEWYRQAYGLNDSAIPILVGTKYALLIDLDPEYQEQISRTSMKYAQVMNAPLIFCSTAKSINIQKIFKIALAKIFNLTLTIPEINEIGDPLLIYKHLGGQQHRHHNKSQDRKSHNIRKPSSSPSSKAPSPGVNT [D135A] | disrupting interaction

Variants of: B2
Settings: with cdc15_yeast CDC15, P27636

Variant | effect of a mutation on the interaction
MATPSTGANNSIPAVRNQVEVQVGLVGDAQVGKASLMVKYVQNIYDKEYTQTLGVNFLKRKVSIRSTDIIFSIMDLGGQREFINMLPIATVGSSVIIFLFDLTRPETLSSIKEWYRQAYGLNDSAIPILVGTKYDLLIDLDPEYQEQISRTSMKYAQVMNAPLIFCSTAKSINIQKIFKIALAKIFNLTLTIPEINEIGDPLLIYKHLGGQQHRHHNKSQDRKSHNIRKPSSSPSSKAPSPGVNT [T34A] | disrupting interaction
MATPSTGANNSIPAVRNQVEVQVGLVGDAQVGKTSLMVKYVQNIYDKEYTQTLGVNFLKRKVSIRSTDIIFSIMDLGGQREFINMLPIATVGSSVIIFLFDLTRPETLSSIKEWYRQAYGLNDSAIPILVGTKYALLIDLDPEYQEQISRTSMKYAQVMNAPLIFCSTAKSINIQKIFKIALAKIFNLTLTIPEINEIGDPLLIYKHLGGQQHRHHNKSQDRKSHNIRKPSSSPSSKAPSPGVNT [D135A] | disrupting interaction
